From patent US20130171217A1, “ENZYMATIC PERACID GENERATION FOR USE IN SKIN CARE PRODUCTS” (E I DU PONT DE NEMOURS AND COMPANY, priority 2010, published 2013)

B1: SEQ ID NO: 331: L29P variant of the hydrolase from Pseudomonas fluorescens fused to hair binding domain HC263 via a flexible linker (protein)
chain: MSTFVAKDGTQIYFKDWGSGKPVLFSHGWPLDADMWEYQMEYLSSRGYRTIAFDRRGFGRSDQPWTGNDYDTFADDIAQLIEHLDLKEVTLVGFSMGGGDVARYIARHGSARVAGLVLLGAVTPLFGQKPDYPQGVPLDVFARFKTELLKDRAQFISDFNAPFYGINKGQVVSQGVQTQTLQIALLASLKATVDCVTAFAETDFRPDMAKIDVPTLVIHGDGDQIVPFETTGKVAAELIKGAELKVYKDAPHGFAVTHAQQLNEDLLAFLKRGPGSGGAGSPGSAGGPGSPSAQSQLPDKHSGLHERAPQRYGPEPEPEPEPIPEPPKEAPVVIEKPKPKPKPKPKPPAHDHKNQKETHQRHAAGSGGGGSPHHHHHH
B2: SEQ ID NO: 333: L29P variant of Pseudomonas fluorescens hydrolase fused to hair binding domain HC263KtoR via a flexible linker (protein)
chain: MSTFVAKDGTQIYFKDWGSGKPVLFSHGWPLDADMWEYQMEYLSSRGYRTIAFDRRGFGRSDQPWTGNDYDTFADDIAQLIEHLDLKEVTLVGFSMGGGDVARYIARHGSARVAGLVLLGAVTPLFGQKPDYPQGVPLDVFARFKTELLKDRAQFISDFNAPFYGINKGQVVSQGVQTQTLQIALLASLKATVDCVTAFAETDFRPDMAKIDVPTLVIHGDGDQIVPFETTGKVAAELIKGAELKVYKDAPHGFAVTHAQQLNEDLLAFLKRGPGSGGAGSPGSAGGPGSPSAQSQLPDRHSGLHERAPQRYGPEPEPEPEPIPEPPREAPVVIERPRPRPRPRPRPPAHDHRNQRETHQRHAAGSGGGGSPHHHHHH
B3: SEQ ID NO: 335: L29P variant of Pseudomonas fluorescens hydrolase fused to hair binding domain HC1010 via a flexible linker (protein)
chain: MSTFVAKDGTQIYFKDWGSGKPVLFSHGWPLDADMWEYQMEYLSSRGYRTIAFDRRGFGRSDQPWTGNDYDTFADDIAQLIEHLDLKEVTLVGFSMGGGDVARYIARHGSARVAGLVLLGAVTPLFGQKPDYPQGVPLDVFARFKTELLKDRAQFISDFNAPFYGINKGQVVSQGVQTQTLQIALLASLKATVDCVTAFAETDFRPDMAKIDVPTLVIHGDGDQIVPFETTGKVAAELIKGAELKVYKDAPHGFAVTHAQQLNEDLLAFLKRGPGSGGAGSPGSAGGPGSAQSQLPDKHSGLHERAPQRYGSGTAEIQSSKNPNPHPQRSWTNGSGHNHMQERYTDPQHSPSVNGLGSGHDHKNQKETHQRHAASSHHHHHH
B4: SEQ ID NO: 337: L29P variant of Pseudomonas fluorescens hydrolase fused to the charged peptide (GK)5-His6 via a flexible linker (protein)
chain: MSTFVAKDGTQIYFKDWGSGKPVLFSHGWPLDADMWEYQMEYLSSRGYRTIAFDRRGFGRSDQPWTGNDYDTFADDIAQLIEHLDLKEVTLVGFSMGGGDVARYIARHGSARVAGLVLLGAVTPLFGQKPDYPQGVPLDVFARFKTELLKDRAQFISDFNAPFYGINKGQVVSQGVQTQTLQIALLASLKATVDCVTAFAETDFRPDMAKIDVPTLVIHGDGDQIVPFETTGKVAAELIKGAELKVYKDAPHGFAVTHAQQLNEDLLAFLKRGPGSGGAGSPGSAGGPGSGKGKGKGKGKHHHHHH
B5: SEQ ID NO: 329: S54V variant of Mycobacterium smegmatis aryl esterase fused to the charged peptide (GK)5-His6 via a flexible linker (protein)
chain: MAKRILCFGDSLTWGWVPVEDGAPTERFAPDVRWTGVLAQQLGADFEVIEEGLVARTTNIDDPTDPRLNGASYLPSCLATHLPLDLVIIMLGTNDTKAYFRRTPLDIALGMSVLVTQVLTSAGGVGTTYPAPKVLVVSPPPLAPMPHPWFQLIFEGGEQKTTELARVYSALASFMKVPFFDAGSVISTDGVDGIHFTEANNRDLGVALAEQVRSLLGPGSGGAGSPGSAGGPGSGKGKGKGKGKHHHHHH
B6: SEQ ID NO: 317: acetyl xylan esterase from Bacillus pumilus fused at its C-terminus to hair binding domain HC263 via a flexible linker (protein)
chain: MQLFDLSLEELKKYKPKKTARPDFSDFWKKSLEELRQVEAEPTLESYDYPVKGVKVYRLTYQSFGHSKIEGFYAVPDQTGPHPALVRFHGYNASYDGGIHDIVNWALHGYATFGMLVRGQGGSEDTSVTPGGHALGWMTKGILSKDTYYYRGVYLDAVRALEVIQSFPEVDEHRIGVIGGSQGGALAIAAAALSDIPKVVVADYPYLSNFERAVDVALEQPYLEINSYFRRNSDPKVEEKAFETLSYFDLINLAGWVKQPTLMAIGLIDKITPPSTVFAAYNHLETDKDLKVYRYFGHEFIPAFQTEKLSFLQKHLLLSTGPGSGGAGSPGSAGGPGSPSAQSQLPDKHSGLHERAPQRYGPEPEPEPEPIPEPPKEAPVVIEKPKPKPKPKPKPPAHDHKNQKETHQRHAAGSGGGGSPHHHHHH

Assay: Perhydrolase activity of targeted hydrolases, ABTS assay
Assay type: biochemical
Conditions: 1 m Na acetate at pH 5.5 instead of triacetin
Method: The ABTS assay was performed as follows: hair samples treated as described above were transferred to new 2-mL microcentrifuge tubes (Eppendorf Protein LoBind; Eppendorf North America, Hauppauge, N.Y.) To each tube was added 480 μL of PAH buffer ([…]), 14 μL of 39% hydrogen peroxide (Sigma 3410), and 6 μL triacetin (Sigma-Aldrich W200700). The perhydrolase reaction was allowed to proceed for 10 minutes at room temperature (˜22-25° C.). The reaction was stopped by diluting aliquots 10×, 100× and 1000× with 10 mM phosphoric acid. For detection 50 μL of 1 M acetic acid, 50 μL of 40 mg/mL potassium iodide, and 50 μL of 4 mM ABTS (2,2′-azino-bis(3-ethylbenzthiazoline-6-sulphonic acid; Sigma, St Louis, Mo.) were added to 50 μL of the above dilutions. Color was allowed to develop for 10 minutes and read in a spectrophotometer at 405 nm. Values from no-enzyme controls were subtracted to yield values attributable only to enzyme activity. A standard curve of OD 405 nm vs PAA concentration in ppm yielded a conversion factor of 8.75, such that an OD 405 nm of 1.0 corresponded to approximately 8.75 ppm PAA. This value was then multiplied by the appropriate dilution to arrive at the PAA concentration in the perhydrolase reaction.
The perhydrolase activity of the enzymes targeted to hair with a variety of targeting domains produced as described in Example 32 was measured with the ABTS assay.

Which Specific perhydrolase activity does the source give for B1 here?
The Specific perhydrolase activity was 0.37 µmol/mg/min.

For B2, which Specific perhydrolase activity is on record?
Its Specific perhydrolase activity is 1.45 µmol/mg/min.

For B3, which Specific perhydrolase activity is on record?
The Specific perhydrolase activity was 1.5 µmol/mg/min.

Which Specific perhydrolase activity does the source give for B4 here?
Its Specific perhydrolase activity is 2.65 µmol/mg/min.

Same assay, conditions: triacetin at pH 7.5

With B5 as the molecule, how does the Specific perhydrolase activity read?
The Specific perhydrolase activity was 264 µmol/mg/min.

Which Specific perhydrolase activity does the source give for B6 here?
The Specific perhydrolase activity was 40 µmol/mg/min.
